Source: publication PMC4558565

B1: bZIP63 (protoplast two-hybrid fusion) [Arabidopsis thaliana] / bZIP63 (protoplast two-hybrid fusion) [Arabidopsis thaliana] (parent)
chain 1: MEKVFSDEEISGNHHWSVNGMTSLNRSASEWAFNRFIQESSAAADDGESTTACGVSVSSPPNVPVDSEEYRAFLKSKLNLACAAVAMKRGTFIKPQDTSGRSDNGGANESEQASLASSKATPMMSSAITSGSELSGDEEEADGETNMNPTNVKRVKRMLSNRESARRSRRRKQAHLSELETQVSQLRVENSKLMKGLTDVTQTFNDASVENRVLKANIETLRAKVKMAEETVKRLTGFNPMFHNMPQIVSTVSLPSETSNSPDTTSSQVTTPEIISSGNKGKALIGCKMNRTASMRRVESLEHLQKRIRSVGDQ
chain 2: B1 chain 1
B2: bZIP63 (protoplast two-hybrid fusion) [Arabidopsis thaliana] / bZIP11 (protoplast two-hybrid fusion) [Arabidopsis thaliana] (parent)
chain 1: B1 chain 1
chain 2: MESSSSGTTSSTIQTSSGSEESLMEQRKRKRMLSNRESARRSRMKKQKLLDDLTAQVNHLKKENTEIVTSVSITTQHYLTVEAENSVLRAQLDELNHRLQSLNDIIEFLDSSNNNNNNNMGMCSNPLVGLECDDFFVNQMNMSYIMNQPLMASSDALMY

Assays:
[1] = variants of: B1; assay: protoplast two-hybrid (P2H) assay; conditions: for response (% of signal with wt bZIP63 and AKIN10): - AKIN10 (no co-transformation), parent: 13, read off a plot; for percent of parent: with bZIP63 (protoplast two-hybrid fusion) [Arabidopsis thaliana], + AKIN10 co-transformation, parent: 100, read off a plot
[2] = variants of: B2; assay: protoplast two-hybrid (P2H) assay; conditions: for response (% of signal with wt bZIP63 and AKIN10): - AKIN10 (no co-transformation), parent: 8, read off a plot; for percent of parent: with bZIP11 (protoplast two-hybrid fusion) [Arabidopsis thaliana], + AKIN10 co-transformation, parent: 100, read off a plot

response (% of signal with wt bZIP63 and AKIN10) [1]	percent of parent [1]	response (% of signal with wt bZIP63 and AKIN10) [2]	percent of parent [2]	Variant
10	67%			chain 1 MEKVFSDEEISGNHHWSVNGMTSLNRSASEWAFNRFIQESSAAADDGESTTACGVSVSSPPNVPVDSEEYRAFLKSKLNLACAAVAMKRGTFIKPQDTSGRSDNGGANESEQASLASSKATPMMSSAITSGSELSGDEEEADGETNMNPTNVKRVKRMLSNRESARRSRRRKQAHLSELETQVSQLRVENSKLMKGLTDVTQTFNDASVENRVLKANIETLRAKVKMAEETVKRLTGFNPMFHNMPQIVSTVSLPSETSNSPDTTSSQVTTPEIISSGNKGKALIGCKMNRTAAMRRVEALEHLQKRIRSVGDQ [chain 1 S294A S300A]
8	79%			chain 1 MEKVFSDEEISGNHHWSVNGMTSLNRSASEWAFNRFIQESSAAADDGESTTACGVSVSSPPNVPVDSEEYRAFLKSKLNLACAAVAMKRGTFIKPQDTSGRSDNGGANESEQASLASSKATPMMSSAITSGSELSGDEEEADGETNMNPTNVKRVKRMLSNRESARRSRRRKQAHLSELETQVSQLRVENSKLMKGLTDVTQTFNDASVENRVLKANIETLRAKVKMAEETVKRLTGFNPMFHNMPQIVSTVSLPSETSNSPDTTSSQVTTPEIISSGNKGKALIGCKMNRTASMRRVEALEHLQKRIRSVGDQ [chain 1 S300A]
		10	110%	chain 1 MEKVFSDEEISGNHHWSVNGMTSLNRSASEWAFNRFIQESSAAADDGESTTACGVSVSSPPNVPVDSEEYRAFLKSKLNLACAAVAMKRGTFIKPQDTSGRSDNGGANESEQASLASSKATPMMSSAITSGSELSGDEEEADGETNMNPTNVKRVKRMLSNRESARRSRRRKQAHLSELETQVSQLRVENSKLMKGLTDVTQTFNDASVENRVLKANIETLRAKVKMAEETVKRLTGFNPMFHNMPQIVSTVSLPSETSNSPDTTSSQVTTPEIISSGNKGKALIGCKMNRTAAMRRVEALEHLQKRIRSVGDQ [chain 1 S294A S300A]
		7	110%	chain 1 MEKVFSDEEISGNHHWSVNGMTSLNRSASEWAFNRFIQESSAAADDGESTTACGVSVSSPPNVPVDSEEYRAFLKSKLNLACAAVAMKRGTFIKPQDTSGRSDNGGANESEQASLASSKATPMMSSAITSGSELSGDEEEADGETNMNPTNVKRVKRMLSNRESARRSRRRKQAHLSELETQVSQLRVENSKLMKGLTDVTQTFNDASVENRVLKANIETLRAKVKMAEETVKRLTGFNPMFHNMPQIVSTVSLPSETSNSPDTTSSQVTTPEIISSGNKGKALIGCKMNRTAAMRRVESLEHLQKRIRSVGDQ [chain 1 S294A]
		13	100%	chain 1 MEKVFSDEEISGNHHWSVNGMTSLNRSASEWAFNRFIQESSAAADDGESTTACGVSVSSPPNVPVDSEEYRAFLKSKLNLACAAVAMKRGTFIKPQDTSGRSDNGGANESEQASLASSKATPMMSSAITSGSELSGDEEEADGETNMNPTNVKRVKRMLSNRESARRSRRRKQAHLSELETQVSQLRVENSKLMKGLTDVTQTFNDASVENRVLKANIETLRAKVKMAEETVKRLTGFNPMFHNMPQIVSTVSLPSETSNSPDTTSSQVTTPEIISSGNKGKALIGCKMNRTASMRRVEALEHLQKRIRSVGDQ [chain 1 S300A]

Continued, variant first:

Variant	response (% of signal with wt bZIP63 and AKIN10) [1]	percent of parent [1]	response (% of signal with wt bZIP63 and AKIN10) [2]	percent of parent [2]
chain 1 MEKVFSDEEISGNHHWSVNGMTSLNRSASEWAFNRFIQESSAAADDGESTTACGVSVSSPPNVPVDSEEYRAFLKSKLNLACAAVAMKRGTFIKPQDTSGRSDNGGANESEQASLASSKATPMMSSAITSGSELSGDEEEADGETNMNPTNVKRVKRMLSNRESARRSRRRKQAHLSELETQVSQLRVENSKLMKGLTDVTQTFNDASVENRVLKANIETLRAKVKMAEETVKRLTGFNPMFHNMPQIVSTVSLPSETSNSPDTTSSQVTTPEIISSGNKGKALIGCKMNRTAAMRRVESLEHLQKRIRSVGDQ [chain 1 S294A]	10	75%		
chain 1 MEKVFSDEEISGNHHWSVNGMTSLNRSAAEWAFNRFIQESSAAADDGESTTACGVSVSSPPNVPVDSEEYRAFLKSKLNLACAAVAMKRGTFIKPQDTSGRSDNGGANESEQASLASSKATPMMSSAITSGSELSGDEEEADGETNMNPTNVKRVKRMLSNRESARRSRRRKQAHLSELETQVSQLRVENSKLMKGLTDVTQTFNDASVENRVLKANIETLRAKVKMAEETVKRLTGFNPMFHNMPQIVSTVSLPSETSNSPDTTSSQVTTPEIISSGNKGKALIGCKMNRTASMRRVESLEHLQKRIRSVGDQ [chain 1 S29A]	7	44%		
chain 1 MEKVFSDEEISGNHHWSVNGMTSLNRSAAEWAFNRFIQESSAAADDGESTTACGVSVSSPPNVPVDSEEYRAFLKSKLNLACAAVAMKRGTFIKPQDTSGRSDNGGANESEQASLASSKATPMMSSAITSGSELSGDEEEADGETNMNPTNVKRVKRMLSNRESARRSRRRKQAHLSELETQVSQLRVENSKLMKGLTDVTQTFNDASVENRVLKANIETLRAKVKMAEETVKRLTGFNPMFHNMPQIVSTVSLPSETSNSPDTTSSQVTTPEIISSGNKGKALIGCKMNRTAAMRRVEALEHLQKRIRSVGDQ [chain 1 S29A S294A S300A]	11			
chain 1 MEKVFSDEEISGNHHWSVNGMTSLNRSAAEWAFNRFIQESSAAADDGESTTACGVSVSSPPNVPVDSEEYRAFLKSKLNLACAAVAMKRGTFIKPQDTSGRSDNGGANESEQASLASSKATPMMSSAITSGSELSGDEEEADGETNMNPTNVKRVKRMLSNRESARRSRRRKQAHLSELETQVSQLRVENSKLMKGLTDVTQTFNDASVENRVLKANIETLRAKVKMAEETVKRLTGFNPMFHNMPQIVSTVSLPSETSNSPDTTSSQVTTPEIISSGNKGKALIGCKMNRTAAMRRVEALEHLQKRIRSVGDQ [chain 1 S29A S294A S300A]			7.5	27%
chain 1 MEKVFSDEEISGNHHWSVNGMTSLNRSAAEWAFNRFIQESSAAADDGESTTACGVSVSSPPNVPVDSEEYRAFLKSKLNLACAAVAMKRGTFIKPQDTSGRSDNGGANESEQASLASSKATPMMSSAITSGSELSGDEEEADGETNMNPTNVKRVKRMLSNRESARRSRRRKQAHLSELETQVSQLRVENSKLMKGLTDVTQTFNDASVENRVLKANIETLRAKVKMAEETVKRLTGFNPMFHNMPQIVSTVSLPSETSNSPDTTSSQVTTPEIISSGNKGKALIGCKMNRTASMRRVESLEHLQKRIRSVGDQ [chain 1 S29A]			11	32%
